This is an account of results in patent US20120289467A1 (UNIVERSITY OF MARYLAND BALTIMORE, published 2012).

The target in assay [1] is T1, VE-cadherin fragment (UniProt P33151 48-477, limits assumed).
T1 construct: also called VE-caherin; immobilized VE-cadherin fragment
T1 sequence (looked up): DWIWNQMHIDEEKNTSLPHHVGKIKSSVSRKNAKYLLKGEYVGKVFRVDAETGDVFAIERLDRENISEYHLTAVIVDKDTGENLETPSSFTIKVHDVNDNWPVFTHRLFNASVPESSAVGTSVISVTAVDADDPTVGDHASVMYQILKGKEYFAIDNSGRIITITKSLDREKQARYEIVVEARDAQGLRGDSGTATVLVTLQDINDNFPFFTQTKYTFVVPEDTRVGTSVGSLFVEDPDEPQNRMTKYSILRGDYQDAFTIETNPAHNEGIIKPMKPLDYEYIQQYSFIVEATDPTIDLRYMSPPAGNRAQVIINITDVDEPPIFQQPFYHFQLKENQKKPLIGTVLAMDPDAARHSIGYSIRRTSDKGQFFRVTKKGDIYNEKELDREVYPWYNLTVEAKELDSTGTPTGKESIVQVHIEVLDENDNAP
The assay can be described thus: SPR (BIAcore), ratio of Kd values, reference β15-42. As for the experimental part:
(§1) To test binding activities of fibrin beta chain derived peptides of the invention to VE-caherin, surface plasmon resonance (SPR) methods are, for example, used. SPR experiments are performed using, for example, a BIAcore 3000 biosensor (BIAcore AB, Uppsala, Sweden), which can be used to measure the association/dissociation of peptides or proteins in real-time (see, for example, Karlsson, R., and Falt, A. J. Immunol. Methods (1997) 200, 121-133; Hall, D. Anal. Biochem. (2001) 288, 109-125; see also Gorlatov et al. Biochemistry (2002) 41, 4107-4116 for other VE-cadherin binding assays including, for example, SPR IAsys Analysis based assays and ELISA based assays). An exemplary method is described in the following passage. VE-cadherin fragment is covalently coupled via epsilon-amino groups to the activated surface of a CM5 biosensor chip by the procedure described by, for example, Karlsson, R., and Falt, A. (J. Immunol. Methods (1997) 200, 121-133; see also Gorlatov et al. Biochemistry (2002) 41, 4107-4116). […] Samples comprising, for example, fibrin beta chain derived peptides β15-42, β15-64, and (β15-66)2, at different concentrations are injected in duplicate in at least three separate experiments and the association/dissociation between the immobilized and the added peptides is monitored as the change in the SPR response. […]
(In general: Surface plasmon resonance follows binding to a sensor surface in real time, without labels.)

Assay [2] has as its target T1, VE-cadherin fragment. Put plainly: not stated on the sheet; the legend calls it the dissociation constant for the interaction with VE-cadherin.
In assay [3] the target is T1, VE-cadherin fragment. The assay can be described thus: SPR (BIAcore), VE-cadherin fragment immobilized, peptide added up to 200 nM; dimeric peptide, added up to 200 nM. The method, then:
as §1

Assay [4] addresses T1, VE-cadherin fragment. Put plainly: SPR (BIAcore), VE-cadherin fragment immobilized; monomeric peptide. As for the experimental part:
as §1

Assay [5] deals with T2, VE-cadherin fragment, P33151.
T2 chain: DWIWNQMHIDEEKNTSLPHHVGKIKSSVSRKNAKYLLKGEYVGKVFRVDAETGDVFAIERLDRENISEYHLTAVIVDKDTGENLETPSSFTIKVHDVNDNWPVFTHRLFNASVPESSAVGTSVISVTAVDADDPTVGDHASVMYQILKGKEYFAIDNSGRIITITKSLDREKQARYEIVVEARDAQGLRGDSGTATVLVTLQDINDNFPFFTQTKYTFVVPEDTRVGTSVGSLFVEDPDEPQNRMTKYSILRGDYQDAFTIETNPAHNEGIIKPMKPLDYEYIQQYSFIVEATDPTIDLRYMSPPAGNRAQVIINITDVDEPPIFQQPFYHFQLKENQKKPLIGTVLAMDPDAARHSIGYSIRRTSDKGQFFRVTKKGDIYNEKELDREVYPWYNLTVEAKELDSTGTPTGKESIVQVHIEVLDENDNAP
Put plainly: plate assay read as absorbance at 450 nm, VE-cad(1-5) concentration varied (0-0.5 µM); format not described in the text.

Assay [6] has as its target T1, VE-cadherin fragment. Put plainly: not stated on the sheet; the legend calls it the dissociation constant for the interaction with VE-cadherin. The source holds these as a separate data set.

No end group written: not given here.

B1: (β15-66)2 dimer peptide (peptide)
peptide: GHRPLDKKREEAPSLRPAPPPISGGGYRARPAKAAATQKKVERKAPDAGGCG
modifications: also: homodimer, Cys65-Cys65 disulfide
notes: Homodimer of two β15-66 chains, disulfide-linked via Cys65; Gly66 is not natural; also called dimeric (β15-66)2
B1: in assay [1], the “fold increase in affinity against β15-42” value was determined as 3600 fold. Also, the Kd in assay [2] came to 27 nM; in assay [3], 70 nM.
As for GHRPLDKKREEAPSLRPAPPPISGGGYR (also called monomeric β15-42) [β15-42 monomeric peptide], binding in assay [4] was characterised by a dissociation constant (Kd) of 252000 nM.
In turn, GHRPLDKKREEAPSLRPAPPPISYCG (also: homodimer linked through added Cys25) [(β15-40)2 dimer peptide] yielded an EC50 (read off the curve) in assay [5] of 40 nM.

B2: (β15-44)2 dimer peptide (peptide)
peptide: GHRPLDKKREEAPSLRPAPPPISGGGYRCG
modifications: also: homodimer, Cys43-Cys43 disulfide
notes: Synthetic homodimer of two identical 30-residue chains, linked by a Cys43-Cys43 disulfide bond; also called dimeric (β15-44)2
B2 displayed a dissociation constant Kd in assay [6] of 21 nM.

One may read the Kd as the equilibrium constant for the complex coming apart. A lower Kd goes with tighter binding. What is called EC50 (read off the curve) is the midpoint of the concentration-response curve. A low value points to higher potency in that assay.
